The term Kd denotes the equilibrium constant for the complex coming apart. In general, koff refers to a measure of how fast the partners let go of each other. Lower therefore signals slow dissociation. As usually defined, the kon is the second-order rate constant of association. A higher kon goes with faster complex formation. By EC50 (read off the curve) is commonly meant the midpoint of the concentration-response curve. Low readings indicate greater potency, high ones weaker potency.

Residue numbers refer to the chain shown, from its start.

The labels stand for the following.
T1: Cyno OX40-AFH (cynomolgus monkey)
T1 construct: entry includes the tags; also called OXF005; cyno OX40 ECD
T1 chain: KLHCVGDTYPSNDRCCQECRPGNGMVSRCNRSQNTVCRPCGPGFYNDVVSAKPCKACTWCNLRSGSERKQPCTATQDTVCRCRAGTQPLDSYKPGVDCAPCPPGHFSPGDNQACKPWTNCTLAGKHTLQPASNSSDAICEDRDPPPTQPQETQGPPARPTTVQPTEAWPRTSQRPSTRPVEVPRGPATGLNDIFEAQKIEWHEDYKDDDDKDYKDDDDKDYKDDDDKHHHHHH

T2: Human OX40 ECD-AFH (human)
T2 construct: ECD'; entry includes the C-terminal tags; also called OXF003; Human OX40 ECD-avi-flag-his
T2 chain: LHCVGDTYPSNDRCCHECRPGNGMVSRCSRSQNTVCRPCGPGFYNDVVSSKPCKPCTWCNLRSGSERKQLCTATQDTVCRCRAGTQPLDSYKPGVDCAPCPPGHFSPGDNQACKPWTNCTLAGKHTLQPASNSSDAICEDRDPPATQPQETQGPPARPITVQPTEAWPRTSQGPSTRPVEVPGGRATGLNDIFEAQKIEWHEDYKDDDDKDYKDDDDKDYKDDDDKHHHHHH

T3: Cyno 4-1BB ECD-AFH (cynomolgus monkey)
T3 construct: entry includes the tags; also called FOB004; Cyno CD137 ECD-avi-flag-his
T3 chain: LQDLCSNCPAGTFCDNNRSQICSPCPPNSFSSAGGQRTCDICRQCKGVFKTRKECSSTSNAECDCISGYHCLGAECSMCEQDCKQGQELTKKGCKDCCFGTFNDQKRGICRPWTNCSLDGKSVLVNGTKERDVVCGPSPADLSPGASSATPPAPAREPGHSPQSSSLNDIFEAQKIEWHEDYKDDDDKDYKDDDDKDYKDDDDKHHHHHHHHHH

T4: Full-length Cyno 4-1BB (cynomolgus monkey, UniProt Q07011 24-255 (human entry))
T4 construct: on Jurkat or CHO cells; also called FOB006; cynomolgus 4-1BB
T4 chain: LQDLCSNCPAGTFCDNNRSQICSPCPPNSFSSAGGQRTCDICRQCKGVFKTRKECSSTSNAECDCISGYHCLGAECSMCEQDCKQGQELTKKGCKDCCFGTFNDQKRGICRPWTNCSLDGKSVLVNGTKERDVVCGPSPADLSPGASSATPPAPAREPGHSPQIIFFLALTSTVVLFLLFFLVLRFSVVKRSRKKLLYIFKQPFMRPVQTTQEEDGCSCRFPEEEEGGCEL

T5: Full-length Cyno OX40 (cynomolgus monkey, UniProt P43489 29-277 (human entry))
T5 construct: on CHO-K1SV cells; also called OXF004; cynomolgus OX40
T5 chain: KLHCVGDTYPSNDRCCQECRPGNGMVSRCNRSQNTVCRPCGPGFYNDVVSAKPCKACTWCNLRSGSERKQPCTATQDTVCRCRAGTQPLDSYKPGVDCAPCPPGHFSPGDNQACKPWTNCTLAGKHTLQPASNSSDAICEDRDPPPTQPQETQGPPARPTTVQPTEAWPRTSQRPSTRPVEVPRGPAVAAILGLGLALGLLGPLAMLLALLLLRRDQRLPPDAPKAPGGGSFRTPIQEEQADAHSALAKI

T6: Full-length Human OX40 (human, UniProt P43489 29-277)
T6 sequence: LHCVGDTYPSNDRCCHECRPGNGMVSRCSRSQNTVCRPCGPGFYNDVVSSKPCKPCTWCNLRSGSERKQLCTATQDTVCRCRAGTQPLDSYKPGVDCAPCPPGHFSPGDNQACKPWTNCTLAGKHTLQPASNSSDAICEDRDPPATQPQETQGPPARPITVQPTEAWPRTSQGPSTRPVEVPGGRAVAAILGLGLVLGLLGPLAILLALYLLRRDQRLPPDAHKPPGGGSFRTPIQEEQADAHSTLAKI

B1: FXX01114 (bispecific antibody)
chain: EVQLVQSGAEVKKPGASVKVSCKASGYTFTSYWMNWVRQAPGQGLEWMGNIYPSGGSTNYAQKFQGRVTMTVDTSTSTVYMELSSLRSEDTAVYYCASFSDGYYAYAMDYWGQGTLVTVSSGGGGSGGGGSGGGGSGGGGSEIVMTQSPATLSLSPGERATLSCRASQSVSSYLNWYQQKPGQAPRLLIYYASRRHTGIPARFSGSGSGTDFTLTISSLQPEDFAVYYCQQGYNLPYTFGQGTKVEIKEPKSSDKTHTCPPCPAPPAAAPSVFLFPPKPKDTLMISRTPEVTCVVVDVSHEDPEVKFNWYVDGVEVHNAKTKPREEQYNSTYRVVSVLTVLHQDWLNGKEYKCAVSNKALPAPIEKTISKAKGQPREPQVYTLPPSRDELTKNQVSLTCLVKGFYPSDIAVEWESNGQPENNYKTTPPVLDSDGSFFLYSKLTVDKSRWQQGNVFSCSVMHEALHNHYTQKSLSLSPGGGGSPSSYVLTQPPSVSVAPGQTARITCGGNNIGSKSVNWFQQKPGQAPVLVVYDDSGRPSGIPARFSGSTSGNTATLTISRVEAGDEADYYCQVWDSSSDHVVFGGGTKLTVLGGGGSGGGGSGGGGSGGGGSQVQLVESGGGVVQPGRSLRLSCAASGFTLSYYGMHWVRQAPGKGLEWVAAISHDGSDKYYADSVKGRFTISRDNSKNRLYLQMNSLRAEDTAVYYCSNDQFDPWGQGTLVTVSSR
notes: ADAPTIR anti-4-1BB x anti-OX40, pI variant
B2: FXX01117 (bispecific antibody)
chain: B1 chain with A543K
notes: as for B1
B3: FXX01116 (bispecific antibody)
chain: B1 chain with I541V, A543S
notes: as for B1
B4: FXX01118 (bispecific antibody)
chain: B1 chain with Q500K
notes: as for B1
B5: FXX01120 (bispecific antibody)
chain: B1 chain with Q500K, I541V, A543S
notes: as for B1

The target in one test is T1, Cyno OX40-AFH. The experiment in a line: SPR (Biacore 8K), construct captured, monovalent ECD. The protocol:
(§1) Mouse anti-human IgG (GE, BR-1008-39) at 25 μg/ml in 10 mM sodium acetate pH 5.0 was immobilized at a density of ˜10,000 response units (RU) onto each flow cell of a CM5 research-grade sensor chip (GE) by standard amine coupling chemistry. Each binding protein at approximately 100 nM in HBS-EP+ with 0.2% BSA buffer was captured in a flow cell with the immobilized anti-human IgG at a flow rate of 10 μL/min for 20 seconds, leaving one flow cell surface unmodified as the reference. Using a single-cycle kinetics mode, five different concentrations of ECD were sequentially injected through each flow cell at 30 μL/min for 300 seconds followed by a 600 second dissociation period. Regeneration was achieved by injection of 3 M MgCl₂ at a flow rate of 30 μL/min for 30 seconds followed by HBS-EP+ with 0.2% BSA buffer stabilization for 1 min.
(§2) Sensorgrams obtained from kinetic SPR measurements were analyzed by the double subtraction method. The signal from the reference flow cell was subtracted from the analyte binding response obtained from flow cells with immobilized or captured ligands. Buffer reference responses were then averaged from multiple injections. The averaged buffer reference responses were then subtracted from analyte binding responses, and the final double-referenced data were analyzed with Biacore T200 Evaluation software (2.0, GE), globally fitting data to derive kinetic parameters. All sensorgrams were fitted using a simple one-to-one binding model.
(§3) Using the BIACORE 8K SPR system, the affinity of these constructs for human and cyno 4-1BB, and human and cyno OX40 ECD, were determined using the methods described above. Monovalent binding affinity was determined by capturing the ADAPTIR™ bispecific construct on the chip and injecting monovalent ECD of the target at multiple concentrations.
In general terms: Surface plasmon resonance follows binding to a sensor surface in real time, without labels.
B1: the dissociation constant (Kd) is less than 1 nM, the koff turned out to be 0.00028 s⁻¹ and the kon is 1.1e+06 M⁻¹ s⁻¹.
B2: the Kd is less than 1 nM, the koff stood at 0.0002 s⁻¹ and the kon came out at 1e+06 M⁻¹ s⁻¹.
Taken in the same sequence, the figures for B3 were less than 1 nM, 0.00027 s⁻¹ and 1e+06 M⁻¹ s⁻¹.
Taken in the same sequence, the figures for B4 were less than 1 nM, 0.00024 s⁻¹ and 1.1e+06 M⁻¹ s⁻¹.
For B5, in that order: 0.2 nM, 0.00023 s⁻¹ and 950000 M⁻¹ s⁻¹.

The target in the next test is T2, Human OX40 ECD-AFH. The test is described as above. The protocol:
as §1, §2, §3
For B1, the Kd is less than 1 nM, the koff was 0.00026 s⁻¹ and the kon was 1.1e+06 M⁻¹ s⁻¹.
As to B2, the Kd is less than 1 nM, the koff turned out to be 0.0003 s⁻¹ and the kon stood at 970000 M⁻¹ s⁻¹.
Taken in the same sequence, the figures for B3 were less than 1 nM, 0.00044 s⁻¹ and 880000 M⁻¹ s⁻¹.
Taken in the same sequence, the figures for B4 were less than 1 nM, 0.00031 s⁻¹ and 840000 M⁻¹ s⁻¹.
B5 had a Kd of 0.4 nM, a koff of 0.00039 s⁻¹ and a kon of 1e+06 M⁻¹ s⁻¹.

The target in another test is T3, Cyno 4-1BB ECD-AFH. The description is as above. The protocol:
as §1, §2, §3
Molecule B1 showed a Kd of 116 nM, a koff of 0.0091 s⁻¹ and a kon of 79000 M⁻¹ s⁻¹.
On to B2, for which the Kd was found to be 76 nM, the koff was found to be 0.0072 s⁻¹ and the kon turned out to be 96000 M⁻¹ s⁻¹.
Molecule B3 returned a Kd of 81 nM, a koff of 0.0079 s⁻¹ and an association rate constant (kon) of 98000 M⁻¹ s⁻¹.
For B4, in that order: 80 nM, 0.0077 s⁻¹ and 96000 M⁻¹ s⁻¹.
Turning to B5, the equilibrium dissociation constant (Kd) turned out to be 77 nM, the koff stood at 0.0075 s⁻¹ and the kon is 97000 M⁻¹ s⁻¹.

The next test addresses T7, Human 4-1BB ECD-AFH (human).
T7 construct: entry includes the tags; also called FOB003; HUMAN CD137 ECD-AVI-FLAG-HIS
The test is described as above. The protocol: as §1, §2, §3
B1 displayed a Kd of 17 nM, a koff of 0.0045 s⁻¹ and a kon of 270000 M⁻¹ s⁻¹.
Taken in the same sequence, the figures for B2 were 17 nM, 0.0042 s⁻¹ and 250000 M⁻¹ s⁻¹.
The molecule B3 gave a Kd of 17 nM, a koff of 0.0046 s⁻¹ and a kon of 270000 M⁻¹ s⁻¹.
For B4, in that order: 17 nM, 0.0046 s⁻¹ and 270000 M⁻¹ s⁻¹.
The molecule B5 had a Kd of 18 nM, a koff of 0.0046 s⁻¹ and a kon of 260000 M⁻¹ s⁻¹.

For the next test, the target named is T4, Full-length Cyno 4-1BB. The experiment in a line: flow cytometry on Jurkat cells transfected with cynomolgus 4-1BB, goat anti-human Fc secondary antibody, MFI (Mean). The protocol: (§4) Serial dilutions of ADAPTIR™ constructs were incubated with transfected target cells and subsequently labelled with a fluorescently-conjugated goat-a-human Fc secondary antibody. […] (See Example 25.)
On the technique in general: A flow cytometer gives signals particle by particle.
For the molecule B1, the “EC50 (read off the curve)” value was approximately 0.3 nM.
Still for that read-out and setting: in the case of B2 it was approximately 0.3 nM.
Same read-out and setting: as for B3, the figure is approximately 0.3 nM; as for B4, approximately 0.3 nM.
For the molecule B5, the concentration for a half-maximal effect (EC50 (read off the curve)) was approximately 0.3 nM.

The next test addresses T5, Full-length Cyno OX40. The experiment in a line: flow cytometry on CHOK1SV cells transfected with cynomolgus OX40, goat anti-human Fc secondary antibody, MFI (Mean). The protocol:
as §4
As for B1, the “EC50 (read off the curve)” value was in the range of 1 to 2 nM.
As for B2, the concentration for a half-maximal effect (EC50 (read off the curve)) fell in the range of 1 to 2 nM.
On the same count and under the same terms, as for B3, the figure is 1 to 2 nM.
Still for that read-out and setting: as for B4, the figure is 1 to 2 nM; as for B5, 1 to 2 nM.

Another test has as its target T6, Full-length Human OX40. The experiment in a line: cell-based or functional assay.
Consider B1, for which the “OX40 Reporter Assay EC50” value turned out to be 0.018 nM and the “OX40 Reporter Assay Max induction” value was found to be 6.08e+06.
Taken in the same sequence, the figures for B2 were 0.018 nM and 6.22e+06.
In the case of B3, the “OX40 Reporter Assay EC50” value came to 0.017 nM and the “OX40 Reporter Assay Max induction” value was found to be 5.95e+06.
Taken in the same sequence, the figures for B4 were 0.016 nM and 6.28e+06.
For B5, in that order: 0.012 nM and 6.12e+06.

In the next test the target is Full-length Human 4-1BB (human, UniProt Q07011 24-255). The experiment in a line: cell-based or functional assay.
B1: the “4-1BB Reporter Assay EC50” value is 0.018 nM and the “4-1BB Reporter Assay Max induction” value stood at 1.43e+06.
For B2, in that order: 0.02 nM and 1.41e+06.
For B3, in that order: 0.019 nM and 1.39e+06.
Take B4: the “4-1BB Reporter Assay EC50” value came to 0.018 nM and the “4-1BB Reporter Assay Max induction” value came out at 1.38e+06.
For B5, in that order: 0.015 nM and 1.38e+06.

The values above are taken from patent US20220242962A1 (APTEVO RESEARCH AND DEVELOPMENT, published 2022).
